To fix the notation:
B1: pCaMKK2: CaMKK2_(93–517) D330A phosphorylated by PKA at all four sites (domain or fragment, human, UniProt Q96RR4 93-517, looked up)
chain: HLSGRKLSLQERSQGGLAAGGSLDMNGRCICPSLPYSPVSSPQSSPRLPRRPTVESHHVSITGMQDCVQLNQYTLKDEIGKGSYGVVKLAYNENDNTYYAMKVLSKKKLIRQAGFPRRPPPRGTRPAPGGCIQPRGPIEQVYQEIAILKKLDHPNVVKLVEVLDDPNEDHLYMVFELVNQGPVMEVPTLKPLSEDQARFYFQDLIKGIEYLHYQKIIHRDIKPSNLLVGEDGHIKIAAFGVSNEFKGSDALLSNTVGTPAFMAPESLSETRKIFSGKALDVWAMGVTLYCFVFGQCPFMDERIMCLHSKIKSQALEFPDQPDIAEDLKDLITRMLDKNPESRIVVPEIKLHPWVTRHGAEPLPSEDENCTLVEVTEEEVENSVKHIPSLATVILVKTMIRKRSFGNPFEGSRREERSLSAPGNLL
modifications: phosphoserine at 100, phosphothreonine at 145, phosphoserine at 495, phosphoserine at 511 (PKA; stoichiometric by LC-MS)
notes: Same construct as m3 after PKA phosphorylation; also called phosphorylated CaMKK2; source: E. coli BL21 (DE3), purified, phosphorylated by PKA in vitro, SEC
B2: CaMKK2_(93–517) D330A, unphosphorylated (domain or fragment)
chain: B1 chain
notes: also called Ca^2+/CaM-dependent protein kinase kinase 2; Not-P CaMKK2; source: E. coli BL21 (DE3), purified
B3: CaMKK1(67-480) D293A, unphosphorylated (domain or fragment)
chain: SLSARKLSLQERPAGSYLEAQAGPYATGPASHISPRAWRRPTIESHHVAISDAEDCVQLNQYKLQSEIGKGAYGVVRLAYNESEDRHYAMKVLSKKKLLKQYGFPRRPPPRGSQAAQGGPAKQLLPLERVYQEIAILKKLDHVNVVKLIEVLDDPAEDNLYLVFDLLRKGPVMEVPCDKPFSEEQARLYLRDVILGLEYLHCQKIVHRDIKPSNLLLGDDGHVKIAAFGVSNQFEGNDAQLSSTAGTPAFMAPEAISDSGQSFSGKALDVWATGVTLYCFVYGKCPFIDDFILALHRKIKNEPVVFPEEPEISEELKDLILKMLDKNPETRIGVPDIKLHPWVTKNGEEPLPSEEEHCSVVEVTEEEVKNSVRLIPSWTTVILVKSMLRKRSFGNPFEPQARREERSMSAPGNL
notes: source: E. coli BL21 (DE3), purified
B4: CaMKK1_(67–480) D293A, unphosphorylated (domain or fragment)
chain: B3 chain
notes: Cloned into pRSFDuet-1; purification as in Psenakova et al., 2018; also called Ca^2+/CaM-dependent protein kinase kinase 1; Not-P CaMKK1; source: E. coli BL21 (DE3), purified
B5: pCaMKK1: CaMKK1_(67–480) D293A phosphorylated by PKA at all four sites (domain or fragment, human, UniProt Q8N5S9 67-480, looked up)
chain: B3 chain
modifications: phosphoserine at 74, phosphothreonine at 108, phosphoserine at 458, phosphoserine at 475 (PKA; stoichiometric by LC-MS)
notes: Same construct as m1 after PKA phosphorylation; also called phosphorylated CaMKK1; source: E. coli BL21 (DE3), purified, phosphorylated by PKA in vitro, SEC
B6: pCaMKK1: CaMKK1(67-480) D293A phosphorylated by PKA at four sites (domain or fragment)
chain: B3 chain
modifications: phosphoserine at 74, phosphothreonine at 108, phosphoserine at 458, phosphoserine at 475
notes: also called 4xPhosphorylated CaMKK1; source: E. coli BL21 (DE3), purified; phosphorylated with PKA, then SEC
B7: Human 14‐3‐3γ (residues 1–235 lacking the C‐terminal 12‐residues‐long flexible tail) (domain or fragment, UniProt P61981 1-235, looked up)
chain: MVDREQLVQKARLAEQAERYDDMAAAMKNVTELNEPLSNEERNLLSVAYKNVVGARRSSWRVISSIEQKTSADGNEKKIEMVRAYREKIEKELEAVCQDVLSLLDNYLIKNCSETQYESKVFYLKMKGDYYRYLAEVATGEKRATVVESSEKAYSEAHEISKEHMQPTHPIRLGLALNYSVFYYEIQNAPEQACHLAKTAFDDAIAELDTLNEDSYKDSTLIMQLLRDNLTLWTS
notes: human 14-3-3γ, residues 1-235, lacking the C-terminal 12 residues; Homodimer; also called 14-3-3γ dimer; source: expressed and purified as described previously (Obsilova et al., 2004)

Data set [1] has as its target T1, Dansyl‐labeled rat calmodulin (DANS‐CaM), Ca^2+-bound (rat, UniProt P0DP29 1-149, dansyl label (dansyl chloride; site not stated)).
T1 construct: rat calmodulin, labeled with dansyl chloride; Assays in 1 mM CaCl2; also called dansyl-Ca^2+/CaM; DANS-labeled CaM; source: prepared as described previously (Holakovska et al., 2011), labeled by dansyl chloride, SEC
As to the kind of experiment: fluorescence polarisation; 2 μM DANS-CaM titrated by 30 μM CaMKK proteins and their binary dilution series, with and without 60 μM 14-3-3γ; 10 mM HEPES–NaOH pH 7.4, 150 mM NaCl, 1 mM CaCl2, 0.1% Tween 20, 0.1% BSA; one-site-binding model. The following applies: both partners purified.

Data set [2] has as its target B7. The experiment in a line: AUC; sedimentation velocity of mixtures of 0.06–6 μM pCaMKK1 or pCaMKK2 with 1.2 μM 14-3-3γ; direct modeling with the Lamm equation, Langmuir binding model, one pCaMKK on a 14-3-3γ homodimer; apparent KD; 50 mM Tris–HCl pH 7.5, 150 mM NaCl, 1 mM TCEP; 20°C. The following applies: both partners purified.
The target of data set [3] is T2, Rat calmodulin, Ca^2+-bound (Ca^2+/CaM) (rat, UniProt P0DP29 1-149).
T2 construct: rat calmodulin; Unlabelled CaM, used with 1 mM CaCl2 in the ultracentrifuge; source: prepared as described previously (Holakovska et al., 2011)
The experiment in a line: AUC; sedimentation velocity of CaMKK1 or CaMKK2 with Ca^2+/CaM (1:1 molar ratio); 50 mM Tris–HCl pH 7.5, 150 mM NaCl, 1 mM TCEP, 1 mM CaCl2; 20°C. The following applies: both partners purified.

Data set [4] deals with T3, dansyl-labeled calmodulin (DANS-CaM), Ca2+-bound (rat, UniProt P0DP29 1-149, dansyl label (dansyl chloride; site not stated)).
T3 construct: rat calmodulin (CaM); The assay buffer held 1 mM CaCl2 (Ca2+/CaM); also called dansyl-Ca2+/CaM; source: prepared as described previously (Holakovska et al., 2011); labeled with dansyl chloride, SEC
As to the kind of experiment: fluorescence polarisation; as a1 but with 60 μM 14-3-3γ present: 2 μM DANS-CaM titrated with CaMKK (30 μM and binary dilution series), 1 h incubation; 10 mM HEPES-NaOH pH 7.4, 150 mM NaCl, 1 mM CaCl2, 0.1% Tween 20, 0.1% BSA; one-site-binding model. Particulars: both partners purified.

The target of data set [5] is T3, dansyl-labeled calmodulin (DANS-CaM), …. As to the kind of experiment: fluorescence polarisation; 2 μM DANS-CaM titrated with CaMKK (30 μM and binary dilution series), 1 h incubation; 10 mM HEPES-NaOH pH 7.4, 150 mM NaCl, 1 mM CaCl2, 0.1% Tween 20, 0.1% BSA; one-site-binding model. The following applies: both partners purified. (Polarisation of emitted light reports the rotation of a fluorescent probe.)

Data set [6] deals with the molecule itself. As to the kind of experiment: SEC-SAXS; in-line SEC-SAXS on Superdex 200 Increase 5/150 GL; complexes mixed at 1:2 molar ratio (pCaMKK:14-3-3γ); 50 mM Tris–HCl pH 7.5, 150 mM NaCl, 1 mM TCEP, 3% glycerol.
The target of data set [7] is B1. The experiment in a line: AUC; sedimentation velocity of mixtures of 0.06–6 μM pCaMKK1 or pCaMKK2 with 1.2 μM 14-3-3γ; direct modeling with the Lamm equation, Langmuir binding model, one pCaMKK on a 14-3-3γ homodimer; apparent KD; 50 mM Tris–HCl pH 7.5, 150 mM NaCl, 1 mM TCEP; 20°C. The following applies: both partners purified.
The target in data set [8] is B5. The data set is described as above. The following applies: both partners purified.

On to B1, for which, in data set [1], the binding result is given as “binds”. The stoichiometry N – broadly, a count of units in the complex or per binding partner – in data set [2] was 2 14-3-3γ protomers per pCaMKK. For the molecule B2, the “stoichiometry N” value in data set [3] was determined as 1. Take B3: the Kd came out at 0.63 ± 0.07 µM in data set [4] and 0.6 ± 0.11 µM in data set [5]. As for B4, the “stoichiometry N” value in data set [3] came to 1.

In the case of B5, in data set [2], the “stoichiometry N” value was 2 14-3-3γ protomers per pCaMKK.

In data set [5], B6 showed a Kd of 2.16 ± 0.3 µM. For B7, the “stoichiometry N” value in data set [6] was 2. Moreover, the Kd stood at 0.06 ± 0.015 µM in data set [7] and 0.021 ± 0.003 µM in data set [8].

The values above are taken from paper PMC10588359, “14‐3‐3 protein inhibits CaMKK1 by blocking the kinase active site with its last two C‐terminal helices” (Protein Science : A Publication of the Protein Society, 2023).
